In patent publication US20190322765A1:

Assays:
[1] = target: IL-2R βγ heterodimer on human cells (NK92 cells, NK and T cells of PBMC) (human) (UniProt P14784); test: cell-based or functional assay
[2] = target: murine IL-2R α-subunit, recombinant monomeric (murine) (UniProt P01590); test: SPR, against the human IL-2R α-subunit as reference
[3] = target: murine IL-2R βγ heterodimer (β knob γ hole Fc fusion) (murine) (UniProt P16297); test: SPR, against the human IL-2R βγ heterodimer as reference
murine IL-2R βγ heterodimer (β knob γ hole Fc fusion) (murine), sequence (P16297 27-240, chain 1 of 2): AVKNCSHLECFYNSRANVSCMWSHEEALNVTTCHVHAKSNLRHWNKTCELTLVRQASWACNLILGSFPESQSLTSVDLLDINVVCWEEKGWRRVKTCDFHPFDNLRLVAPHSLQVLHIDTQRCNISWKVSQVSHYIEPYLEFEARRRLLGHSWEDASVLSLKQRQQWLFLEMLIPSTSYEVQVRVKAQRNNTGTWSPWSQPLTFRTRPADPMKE
murine IL-2R βγ heterodimer (β knob γ hole Fc fusion) (murine), sequence (P34902 23-263, chain 2 of 2, further chain): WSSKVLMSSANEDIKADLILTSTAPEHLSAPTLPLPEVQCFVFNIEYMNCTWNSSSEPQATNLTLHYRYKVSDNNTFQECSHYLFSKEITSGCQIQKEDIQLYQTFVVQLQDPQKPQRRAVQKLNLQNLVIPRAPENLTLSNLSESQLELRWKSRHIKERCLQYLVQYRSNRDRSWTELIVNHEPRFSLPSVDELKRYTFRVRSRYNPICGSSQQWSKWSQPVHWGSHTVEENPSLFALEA

IL-2R βγ heterodimer on human cells (NK92 cells, NK and T cells of PBMC) (human), sequence (P14784 27-551, chain 1 of 2): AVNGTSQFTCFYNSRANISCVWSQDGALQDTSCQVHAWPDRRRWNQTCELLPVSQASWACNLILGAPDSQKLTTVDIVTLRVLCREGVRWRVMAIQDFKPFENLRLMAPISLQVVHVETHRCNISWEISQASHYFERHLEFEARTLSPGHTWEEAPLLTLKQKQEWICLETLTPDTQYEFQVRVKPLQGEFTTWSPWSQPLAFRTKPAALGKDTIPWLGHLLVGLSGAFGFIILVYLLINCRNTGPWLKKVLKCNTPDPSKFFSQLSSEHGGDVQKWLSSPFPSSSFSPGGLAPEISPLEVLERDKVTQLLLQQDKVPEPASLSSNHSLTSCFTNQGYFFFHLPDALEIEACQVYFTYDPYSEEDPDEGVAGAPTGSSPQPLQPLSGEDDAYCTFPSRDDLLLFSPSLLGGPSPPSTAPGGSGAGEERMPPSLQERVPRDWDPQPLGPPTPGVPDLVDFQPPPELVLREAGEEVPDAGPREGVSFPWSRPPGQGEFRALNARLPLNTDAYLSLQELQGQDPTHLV
IL-2R βγ heterodimer on human cells (NK92 cells, NK and T cells of PBMC) (human), sequence (P31785 23-369, chain 2 of 2, further chain): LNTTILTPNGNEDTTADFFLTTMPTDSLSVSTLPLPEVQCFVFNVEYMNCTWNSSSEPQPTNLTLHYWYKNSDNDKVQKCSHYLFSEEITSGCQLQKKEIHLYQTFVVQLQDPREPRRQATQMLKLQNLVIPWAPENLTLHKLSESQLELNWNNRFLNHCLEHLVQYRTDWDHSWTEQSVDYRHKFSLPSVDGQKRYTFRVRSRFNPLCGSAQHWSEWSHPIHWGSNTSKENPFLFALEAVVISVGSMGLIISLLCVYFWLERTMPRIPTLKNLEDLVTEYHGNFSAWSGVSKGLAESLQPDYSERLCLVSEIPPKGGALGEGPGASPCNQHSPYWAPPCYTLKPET
murine IL-2R α-subunit, recombinant monomeric (murine), sequence (P01590 22-236 limits assumed): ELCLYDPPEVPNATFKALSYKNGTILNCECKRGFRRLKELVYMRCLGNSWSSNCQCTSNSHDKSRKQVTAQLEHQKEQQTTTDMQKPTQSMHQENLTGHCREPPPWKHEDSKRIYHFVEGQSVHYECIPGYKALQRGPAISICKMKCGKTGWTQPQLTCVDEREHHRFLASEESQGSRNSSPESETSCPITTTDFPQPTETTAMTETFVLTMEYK

Substance	EC50 of IFN-γ release by NK92 cells [1]	EC50 of STAT5 phosphorylation, CD8+ T cells [1]	EC50 of STAT5 phosphorylation, NK cells [1]	fold lower affinity than for the human receptor [2]	fold lower affinity than for the human receptor [3]
Proleukin (Novartis/Chiron), commercially available wild-type IL-2 (from UniProt P60568 22-153) (ligand)	4.1 nM	1.07 nM	0.222 nM	–	–
human IL-2	–	–	–	10 fold	10 fold
